According to paper PMC12903857 (2026):
One block for each binder: values may come before it. Non-standard residues stand in square brackets, D forms with d. No end group written: not given here. pS = N[C@@H](COP(=O)(O)O)C(=O)O

B2: 14-3-3σ (natural protein)
chain: MERASLIQKAKLAEQAERYEDMAAFMKGAVEKGEELSCEERNLLSVAYKNVVGGQRAAWRVLSSIEQKSNEEGSEEKGPEVREYREKVETELQGVCDTVLGLLDSHLIKEAGDAESRVFYLKMKGDYYRYLAEVATGDDKKRIIDSARSAYQEAMDISKKEMPPTNPIRLGLALNFSVFHYEIANSPEEAISLAKTTFDEAMADLHTLSEDSYKDSTLIMQLLRDNLTLWTADNAGEEGGEAPQEPQS

What was measured:
14-3-3σ [1] = target: B2; assay: FP; DMSO
14-3-3σ [2] = target: B2; assay: FP; 100 uM compound 29
14-3-3σ [3] = target: B2; assay: FP; 100 uM compound 32
14-3-3σ [4] = target: B2; assay: FP; 100 uM compound 37
14-3-3σ [5] = target: B2; assay: FP; 100 uM compound 70
14-3-3σ [6] = target: B2; assay: FP; 100 uM compound 78
14-3-3σ [7] = target: B2; assay: FP; 100 uM compound 79
14-3-3σ [8] = target: B2; assay: FP; 100 uM compound 80
14-3-3σ [9] = target: B2; assay: FP; 100 uM compound 83
14-3-3σ [10] = target: B2; assay: FP; 100 uM compound 86
B-RAF 365 (10mer) [11] = target: T1, B-RAF 365 (10mer) (Homo sapiens, not fully specified); assay: FP; DMSO
T1 chain: DRSS[pS]APNVH

B-RAF 365 (10mer) [12] = target: T1, B-RAF 365 (10mer); assay: FP; 100 uM compound 23
B-RAF 365 (10mer) [13] = target: T1, B-RAF 365 (10mer); assay: FP; 100 uM compound 29
B-RAF 365 (10mer) [14] = target: T1, B-RAF 365 (10mer); assay: FP; 100 uM compound 32
B-RAF 365 (10mer) [15] = target: T1, B-RAF 365 (10mer); assay: FP; 100 uM compound 37
B-RAF 365 (10mer) [16] = target: T1, B-RAF 365 (10mer); assay: FP; 100 uM compound 86
[17] = target: T2, 14-3-3σ covalently bound to molecular glue 23 (UniProt P31947 1-248, C38 covalently bound to compound 23 (chloroacetamide warhead)); assay: SPR; 14-3-3σ covalently bound to molecular glue 23
T2 chain: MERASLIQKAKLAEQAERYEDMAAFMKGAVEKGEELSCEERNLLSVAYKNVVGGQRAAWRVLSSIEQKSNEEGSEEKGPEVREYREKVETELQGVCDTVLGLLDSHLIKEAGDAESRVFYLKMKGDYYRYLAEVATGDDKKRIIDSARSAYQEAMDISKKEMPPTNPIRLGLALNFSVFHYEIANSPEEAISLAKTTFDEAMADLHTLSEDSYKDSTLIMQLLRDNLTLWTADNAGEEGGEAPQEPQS

14-3-3σ [18] = target: B2; assay: FP; 100 uM compound 8
14-3-3σ [19] = target: B2; assay: FP; 100 uM compound 11
14-3-3σ [20] = target: B2; assay: FP; 100 uM compound 12
14-3-3σ [21] = target: B2; assay: FP; 100 uM compound 18
14-3-3σ [22] = target: B2; assay: FP; 100 uM compound 19
14-3-3σ [23] = target: B2; assay: FP; 100 uM compound 21
14-3-3σ [24] = target: B2; assay: FP; 100 uM compound 24
14-3-3σ [25] = target: B2; assay: FP; 100 uM compound 30
14-3-3σ [26] = target: B2; assay: FP; 100 uM compound 31
14-3-3σ [27] = target: B2; assay: FP; 100 uM compound 32
14-3-3σ [28] = target: B2; assay: FP; 100 uM compound 33
14-3-3σ [29] = target: B2; assay: FP; 100 uM compound 36
14-3-3σ [30] = target: B2; assay: FP; 100 uM compound 38
14-3-3σ [31] = target: B2; assay: FP; 100 uM compound 39
14-3-3σ [32] = target: B2; assay: FP; 100 uM compound 40
14-3-3σ [33] = target: B2; assay: FP; 100 uM compound 46
14-3-3σ [34] = target: B2; assay: FP; DMSO (reference for compound 8)
14-3-3σ [35] = target: B2; assay: FP; DMSO (reference for compound 11)
14-3-3σ [36] = target: B2; assay: FP; DMSO (reference for compound 70)
14-3-3σ [37] = target: B2; assay: FP; DMSO (reference for compound 80)
14-3-3σ [38] = target: B2; assay: FP; DMSO (reference for compounds 19, 33)
14-3-3σ [39] = target: B2; assay: FP; DMSO (reference for compounds 24, 30, 31)
14-3-3σ [40] = target: B2; assay: FP; DMSO (reference for compounds 12, 18, 21, 36, 39, 40)
[41] = target: T3, 14-3-3σ, tagged with a Twin-Strep tag (UniProt P31947 1-248); assay: SPR
T3 chain: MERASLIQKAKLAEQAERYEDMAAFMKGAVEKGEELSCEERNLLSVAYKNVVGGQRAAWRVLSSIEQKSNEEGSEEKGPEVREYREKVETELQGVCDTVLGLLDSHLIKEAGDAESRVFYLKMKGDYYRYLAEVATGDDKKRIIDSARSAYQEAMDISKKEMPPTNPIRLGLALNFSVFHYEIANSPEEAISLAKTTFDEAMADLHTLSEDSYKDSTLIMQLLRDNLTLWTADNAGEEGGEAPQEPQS

14-3-3σ [42] = target: B2; assay: FP; 100 uM compound 22
14-3-3σ [43] = target: B2; assay: FP; 100 uM compound 23

B1: 15-mer B-RAF peptide (peptide)
chain: GQRDRSSSAPNVHIN
modifications: also: phosphoserine at S365, site in chain not given here
- Kd (14-3-3σ [1]): 2240 nM
- Kd (14-3-3σ [2]): 14 nM
- Kd (14-3-3σ [3]): 245 nM
- Kd (14-3-3σ [4]): 25 nM
- Kd (14-3-3σ [5]): 70 nM
- Kd (14-3-3σ [6]): 55 nM
- Kd (14-3-3σ [7]): 60 nM
- Kd (14-3-3σ [8]): 220 nM
- Kd (14-3-3σ [9]): 94 nM
- Kd (14-3-3σ [10]): 95 nM

Binder: B2
- Kd (B-RAF 365 (10mer) [11]): 650 nM
- Kd (B-RAF 365 (10mer) [12]): 105 nM
- Kd (B-RAF 365 (10mer) [13]): 140 nM
- Kd (B-RAF 365 (10mer) [14]): 112 nM
- Kd (B-RAF 365 (10mer) [15]): 52 nM
- Kd (B-RAF 365 (10mer) [16]): 155 nM

B3: acetylated 12-mer B-RAF peptide (peptide)
chain: DRSSSAPNVHIN
modifications: not fully specified (residue 5, N-terminus); also: phosphoserine at 365, position in chain not mapped
- Kd [17]: 6.3 nM

B6: acetylated 12-mer A-RAF peptide (peptide)
chain: IRSTSTPNVHMV
modifications: not fully specified (residue 5, N-terminus); also: phosphoserine at 214, position in chain not mapped
- Kd [41]: 2000 nM
- Kd [17]: 1.7 nM

Results, then the binder that gave them:

- Kd (14-3-3σ [18]): 6600 nM
- Kd (14-3-3σ [19]): 400 nM
- Kd (14-3-3σ [20]): 190 nM
- Kd (14-3-3σ [21]): 280 nM
- Kd (14-3-3σ [22]): 213 nM
- Kd (14-3-3σ [23]): 480 nM
- Kd (14-3-3σ [24]): 110 nM
- Kd (14-3-3σ [25]): 780 nM
- Kd (14-3-3σ [26]): 1420 nM
- Kd (14-3-3σ [27]): 140 nM
- Kd (14-3-3σ [28]): 230 nM
- Kd (14-3-3σ [29]): 240 nM
- Kd (14-3-3σ [30]): 218 nM
- Kd (14-3-3σ [31]): 420 nM
- Kd (14-3-3σ [32]): 320 nM
- Kd (14-3-3σ [33]): 170 nM
- Kd (14-3-3σ [8]): 420 nM
- Kd (14-3-3σ [9]): 102 nM
- Kd (14-3-3σ [34]): 6700 nM
- Kd (14-3-3σ [35]): 1320 nM
- Kd (14-3-3σ [36]): 5510 nM
- Kd (14-3-3σ [37]): 4600 nM
- Kd (14-3-3σ [38]): 3050 nM
- Kd (14-3-3σ [39]): 2280 nM
- Kd (14-3-3σ [40]): 4200 nM
B4: FAM-labeled C-RAF259 peptide (10-mer) (peptide)
chain: QRSTSTPNVH
modifications: also: phosphoserine at S259, site in chain not given here, FAM label, site not given here

- Kd (14-3-3σ [4]): 136 nM
- Kd (14-3-3σ [5]): 100 nM
- Kd (14-3-3σ [7]): 135 nM
- Kd (14-3-3σ [8]): 332 nM
- Kd (14-3-3σ [9]): 145 nM
- Kd (14-3-3σ [10]): 140 nM
B5: 15-mer C-RAF peptide (peptide)
peptide: SQRQRSTSTPNVHMV
modifications: also: phosphoserine at S259, site in chain not given here

- Kd (14-3-3σ [42]): 9 nM
- Kd (14-3-3σ [43]): 5 nM
- Kd (14-3-3σ [2]): 30 nM
- Kd (14-3-3σ [3]): 50 nM
- Kd (14-3-3σ [4]): 25 nM
- Kd (14-3-3σ [5]): 110 nM
- Kd (14-3-3σ [6]): 120 nM
- Kd (14-3-3σ [7]): 115 nM
- Kd (14-3-3σ [8]): 1100 nM
- Kd (14-3-3σ [9]): 265 nM
- Kd (14-3-3σ [10]): 140 nM
B7: 15-mer A-RAF peptide (peptide)
chain: LQRIRSTSTPNVHMV
modifications: also: phosphoserine at S214, site in chain not given here

- Kd [17]: 1.2 nM
B8: acetylated 12-mer C-RAF peptide (peptide)
chain: QRSTSTPNVHMV
modifications: not fully specified (residue 5, N-terminus); also: phosphoserine at 259, position in chain not mapped
